Assay [1] concerns the target HLA-A2 on other WT1 negative HLA-A2+ cells (other than 501, A498 and SKMEL; members not named). Nature of the assay: flow cytometry on IM-9 cells (WT1 mRNA -). In general terms: Flow cytometry measures light scatter and fluorescence of single cells or particles in a stream.
The target is the same in assay [2]. The experiment in a line: flow cytometry on U266 cells (WT1 mRNA -).
The target is the same in assay [3]. Nature of the assay: flow cytometry on JVM-2 cells (WT1 mRNA -).
Assay [4] has as its target Unloaded T2 (Homo sapiens). The experiment in a line: flow cytometry, unloaded T2 cells. Details: reference not given here.
Assay [5] concerns the target HLA-A2/MAGE-A4 230-239 complex on cells (human). The experiment in a line: flow cytometry, T2 cells loaded with 10^-4 M peptide.
Assay [6] deals with HLA-A2/MAGE-A9 223-231 complex on T2 cells (human). The assay is described as above.
For assay [7], the target named is HLA-A2/PAP 112-120 complex on T2 cells (human). Described as above.
In assay [8] the target is HLA-A2 on HLA-A2+ cells that do not express WT1 (tumor cell lines, normal primary cells). Nature of the assay: flow cytometry on SKMEL-5 melanoma cells (WT1 mRNA -).
The target is the same in assay [9]. Nature of the assay: flow cytometry on A498 cells (WT1 mRNA -).
The target in assay [10] is HLA-A2 on HLA-A2+/WT1+ BV173 cells (WT1 mRNA positive; WT1 126-134 peptide not detected by mass spectrometry of eluted HLA peptides). Nature of the assay: flow cytometry on BV173 cells (WT1 mRNA +).
Assay [11] addresses HLA-A2 on HLA-A2+/WT1+ SET2 cells (WT1 mRNA positive; WT1 126-134 peptide not detected by mass spectrometry of eluted HLA peptides). Nature of the assay: flow cytometry on SET-2 cells (WT1 mRNA +).
Assay [12] has as its target HLA-A2/WT1 126-134 complex on T2 cells (human). The experiment in a line: flow cytometry, T2 cells loaded with 10^-4 M WT1 peptide.
The target of assay [13] is HLA-A2 on HLA-A2+ cells that do not express WT1 (tumor cell lines, normal primary cells). Nature of the assay: flow cytometry on 501A melanoma cells (WT1 mRNA -).
Assay [14] addresses HLA-A2/Tyrosinase369-377 complex on cells (human). The experiment in a line: flow cytometry, T2 cells loaded with 10^-4 M peptide. The arrangement: reference not given here.
In another assay the target is P68 … (Homo sapiens). The assay is described as above. Details: reference not given here.
For assay [15], the target named is HLA-A2/WT1-S10 on T2 cells (human). Nature of the assay: flow cytometry, peptide-loaded T2 cells (10^-4-10^-5 M).
Assay [16] addresses HLA-A2/WT1-S11 on T2 cells (human). Described as above.
For assay [17], the target named is HLA-A2/WT1-S13 on T2 cells (human). The description is as above.
In assay [18] the target is HLA-A2/WT1-S16 on T2 cells (human). Described as above.
The target of assay [19] is HLA-A2/WT1-S22 on T2 cells (human). The description is as above.
Assay [20] addresses HLA-A2/WT1-S6 on T2 cells (human). The assay is described as above.
For assay [21], the target named is HLA-A2/WT1-S7 on T2 cells (human). Described as above.
In assay [22] the target is HLA-A2/WT1 126-134 complex on T2 cells (human). Nature of the assay: flow cytometry, T2 cells loaded with WT1 peptide 1x10e-4M.
The target is the same in assay [23]. Nature of the assay: flow cytometry, T2 cells loaded with WT1 peptide 1x10e-5M.
For assay [24] the target is unchanged. The experiment in a line: flow cytometry, T2 cells loaded with WT1 1x10e-4M in DMSO.
Assay [25] addresses single-chain recombinant HLA-A2/WT1 126-134 complex (human). The experiment in a line: SPR (ProteOn), biotinylated scHLA-A2/WT1 on NeutrAvidin, Fab as analyte; faster dissociation told in words.

Regarding ESK1 TCR-like antibody (IgG), the MFI in assay [1] worked out at 1.2; in assay [2], 1.9; in assay [3], 1; in [4], 1; in [5] it was 1.1; in [6], 1. For the same substance, the MFI amounted to 1.1 in [7]; 4.3 in assay [8]; 5.2 in [9]; 8.1 in assay [10]; 26.3 in assay [11]; 18 in assay [12]. Also, the MFI in [13] turned out to be 10.7; in assay [14], 1; with P68 … (Homo sapiens), 1; in [15], 1.4; in [16] it was 1.1; in [17], 1.1. The MFI in [18] was 1.1; in [19], 1.1; in [20] it was 5; in assay [21] it was 3.1; in assay [22] it was 17.9; in [23] it was 1.6. This substance had an MFI in [24] of 17.9.
On to ESK1 TCRL Fab, for which the Kd in [25] came out at 200 nM.

By Kd is commonly meant a measure of binding affinity in units of concentration.

The values are drawn from patent US20180171024A1.
